Data from the nanobody polyreactivity screen of Harvey et al. (2022).

Assay: yeast display, Sf9 membrane polyspecificity reagent, FACS + sequencing; frameworks hold sequencing errors
In short: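 In a synthetic yeast display library (Saccharomyces cerevisiae BJ5465), nanobody expression was induced with galactose for 36–48 hours. FACS gates were set low and high (top ~1%) using anti-HA fluorescence for expression and streptavidin fluorescence for binding of the Sf9 membrane reagent. Each polyreactivity label is drawn from the gate of origin.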

Sequence	polyreactivity (PSR sort gate)
QVQLVESGGCLVQAGGSIRLSCAASGSIFKSNAMGWYRQAPGKERELVAAISNGGITNYADSVKVRFTISRDNAKNTDYLQMNSLKPEDTAVYYCNARNNYWWYCPGYDYWGQGTQLTVSS	low polyreactivity
QVQLVESGGCLVQAGGSLGLSCAASGFSFLEYAKGWYRQAPGKERELVAVISRRGGRTYYADSVKGRFTISRDNAKITVFLQMNSLNPEDTEVYYWNARISGCVWHYDYWGQGTQVTVSS	high polyreactivity
QVQLVESGGCLVQAGGSLPLSCAASGIIFAQYVMGWYIQATGKESELVAAIRTSGGRTYYADSVKGRFTISRDNSKNTVYLQMNSLKPEDTAVYYCAAYGKPTFRSVDYWGQGTQVTVSS	high polyreactivity
QVQLVESGGCLVQAGGSLRLICAASGIIFWGYFMGWYRQAPAKERELVAAISRGGRTYYADSVKGRFTISRDNAKNTVYLQMNSLKPEDTAVDYCAARWGRSYLPQPFQFEYDYWGQGTQVTVSS	high polyreactivity
QVQLVESGGCLVQAGGSLRLRGAASGRIFGYYAMGWYRQAPGKEWELVAAISRGGSTNYADSVKGRFTISRDNAKNTVYLQMNSLKPEDTAVYYCAAVQRTHPRYYYWGQGTQVTVSS	high polyreactivity
QVQLVESGGCLVQAGGSLRLSCAASGFIFRQYAMGWYRQAPGKERELVAAISTGGGRTYYADSVKGRFTISRDNAKNTVYLQMNSLKPEDTAVYYCAAGYPYSYRDYYYWGQGTQVTVSS	high polyreactivity
QVQLVESGGCLVQAGGSLRLSCAASGFIFRWYAMGWYRQAPGKERELVAAISLGGSTNYADSVKGRFTISRDNAKNTVYLQMNSLKPEDTAVYYCNARYVSYSGRYVIGQYVKYDYWGKGTQVTVSS	high polyreactivity
QVQLVESGGCLVQAGGSLRLSCAASGFIFWDYAMGWYRQAPGKERELVAAISDSGGDKYYADSVKGRFTISRDNAKNTVYLQMNSLKPEDTAVYYCAADVELWVFRGQQYDYWGQGTQVTVSS	low polyreactivity
QVQLVESGGCLVQAGGSLRLSCAASGFTFHDYAMGWYRQAPGKERELVAAITKSGGRTYYADSVKGRFTISRDNAQNTVYLQMNSLKPVDTAVYYRAAKSYWGQVTQVTVSS	high polyreactivity
QVQLVESGGCLVQAGGSLRLSCAASGFTFHNNVMGWYRQAPGKDRELVATISKSGGSTYYADSEKGRFTISRDNAKNTVYLQMNSLKPEDTAVYYCDRRYRYYGRYGYWGQGTQVTVSS	high polyreactivity
QVQLVESGGCLVQAGGSLRLSCAASGGTFRGYAMGWYRQAPGKETELVAASSTSGSRTSYADSVKGRFTISRDNAKNTVYLQMNSLKPEDNAVYYCNADPIHGVYSRFRLGGYWGQGTQVTVSS	high polyreactivity
QVQLVESGGCLVQAGGSLRLSCAASGITFKYYVMGWYRQAPGKEREFVAAISWGGGSPYYADSVKGRCTISRDNAKNTVYVQMNSLKPEDTAVYYCAATSAYGRYRYYYWGQGTQVTVSS	high polyreactivity
QVQLVESGGCLVQAGGSLRLSCAASGLIFYRYAMGWYRQAPGKERELVAAISWSGGTTYYADSVKGRFTISRDNAKNSVYLQMNSLKPEDTAVYYCAADAVYYHFDYWGQGTQVTVSS	high polyreactivity
QVQLVESGGCLVQAGGSLRLSCAASGLTFGSNAMGWYRQAPGKERELVAAISSTGSTYYADSVKGRFTISRDNAKNTVYLQMNSLKPEDTAVYYCAAYDYWGQGTQVTVSS	low polyreactivity
QVQLVESGGCLVQAGGSLRLSCAASGNTFWVNSMGWYRQAPGKERELVAGITSSGDSTSYADSVKGRFTISRDNAKNTVYLQMNSLKPEDTAVYYCAADVGGFWYTEYYWGQGTQVTVSS	high polyreactivity
QVQLVESGGCLVQAGGSLRLSCAASGRIFPGYAMGWYRQAPGKESEFVAAITASGGTTYYADSVKGRFTISRDNAKNTVYLQMNCLKPEDTAVYYCAKYRYTVAGYNYWGQGTQVTVSS	high polyreactivity
QVQLVESGGCLVQAGGSLRLSCAASGRIFQAYAMGWYRQAPGKERELVAAINRSGNTNYADSVKGRFTISRDNAKNTVYLQMNSLKPEDTAVYYCAADAVSFSYFGYQRMDYWGQGTQVTVSS	low polyreactivity
QVQLVESGGCLVQAGGSLRLSCAASGRIFQSYAMGWYRQAPGKESELVAAISQSGGSTYYADSVQGRFTISRDNAKNTVYVQMNSLKPEDTAVYYCAARSRWYKRYDYWGQGTQVTVSS	low polyreactivity
QVQLVESGGCLVQAGGSLRLSCAASGRIFRDKAMGWYRQAPGKEREFVARITISTGTTYYADSVKGRFTISRDNAKNTGYLQKNSLKPADTAVYYCAALYTDSYLTSPVSYRYDYWGQGTQVSVSS	low polyreactivity
QVQLVESGGCLVQAGGSLRLSCAASGRIFYRYAMGWSRQAPGKVRELVATISWSGGSTYYAHSVKGRFTISRDNAKYTVYLQLNSLKPEDTAVYYCNAAYGNVSRVYYLIEHDYWGQGTQVTVSS	high polyreactivity
QVQLVESGGCLVQAGGSLRLSCAASGRILEYYTMGWYRQAPGKERELVAGITSGGTTNYADSVKGRFTISRDNAKNTVYLQMNSLKPEDTAVYYCALKQSYYFGSYFYGHEYYYWGQGTQVTVSS	low polyreactivity
QVQLVESGGCLVQAGGSLRLSCAASGRILLHNAMGWYRQAPGKERELVAAITNGGSTYYADSVKGRFTISRDNAKNTVYLQMNSLKPEDTAVYYCAARTRLAQYSRGRYRYDYWGQGTQVTVSS	high polyreactivity
QVQLVESGGCLVQAGGSLRLSCAASGRISVFYAMGWYRQAPGKERELVAAITRSGTTKYADSVKGRFTISRDNAKNTVYLQMNSLKPEDTAVYYCAVRRYRARFGYWGKGTQVTVSS	high polyreactivity
QVQLVESGGCLVQAGGSLRLSCAASGRIYIGYAMGWYRQAPGKERELVAAITTGGRTSYAVSVKGRFTISRDNAKNTVYLQMNSLKPVDTAVYYCAKRKSYNFPTRRPYYRRYYYWGQGTQVTVSS	high polyreactivity
QVQLVESGGCLVQAGGSLRLSCAASGRTFNYKAMGWYRQAPGKERELVAAINYSGDSTYYADSVKGRFTISRDNAKNTVYLQMNSLQPEDTAVYYCNADDYWYYYRYGYWGQGTQVTVSS	low polyreactivity
QVQLVESGGCLVQAGGSLRLSCAASGRTFSIYAMGWYRQAPGKEWELVASINGSGGSTYYADSVKGRFTISRDIAMNTVYLQMNSLKPEDTAVYYCAARASPRFNYWGQGSQVTVSS	high polyreactivity
QVQLVESGGCLVQAGGSLRLSCAASGRTFSLYAMGWYRQEPGQERELVASITDSTGGSTYYADSVKGRFTLSRDNAKNTVYLQMNSLKPEDTAVYYCAAQDYQYSDYQWWFGYWGLGTQVTVSS	low polyreactivity
QVQLVESGGCLVQAGGSLRLSCAASGRTFYGYAMGWYRQAPGKERELVATITSGGSTNYADSVKGRFTISRDNAKNTVYLQMNSLKPEDTAVYYCAATTRLYGRHRRYNYWGQGTQVTVSS	high polyreactivity
QVQLVESGGCLVQAGGSLRLSCAASGRTFYSYAMGWYRQAPGKERELVAAISYTGASTFYADSVKGRFTISRDNAKNTVYLQMNSLKPEDTAVYYCAARKVRFAVDYWGQGTQVTVSS	high polyreactivity
QVQLVESGGCLVQAGGSLRLSCAASGRTIRVYAMGWYRQAPGKARELVASITRAGGTYADSVKGRFTISRDIAKNPDYLQMNSLKPEDTAVYFCNARWQRSTGGRQRYDYWGQGTQVTVSS	high polyreactivity
